# Laboratory results from the nanobody polyreactivity screen of Harvey et al. (2022).
# Test: yeast display, Sf9 membrane polyspecificity reagent, FACS + sequencing; frameworks hold sequencing errors
# Outline: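 Using colony PCR, genes from sorted yeast display clones were amplified, then sequenced on MiSeq at 2 × 250 and filtered by CDR length. The clones had been stained with 10% biotinylated, detergent-solubilized Sf9 membrane reagent for 1 hour at 4 °C and sorted by FACS into low and high (top ~1%) gates on anti-HA and streptavidin fluorescence. Polyreactivity labels come from the gate of origin.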
row,Sequence,polyreactivity (PSR sort gate)
1,QVQLVESGGGLVQAGGSLRLSCAASGITIYVYAMGWYRQAPGTERELVAAITRSGGITSYADSVKGRFTISRDNAKNTVYLQMNSLKPEDTAVYYVAAESTNLHYHIQGVGYWGQGTQVTVSS,low polyreactivity
2,QVQLVESGGGLVQAGGSLRLSCAASGRSFGTYAMGWYRQAPGKERELVAAISRSGGRTYYADSVKGRFTISRDNAKNTVYLQMNSLKPEDTAVYYCAAATGSVPPYDYWGQGTQVTVSS,high polyreactivity
3,QVQLVESGGGLVQAGASLRLRCAASGRTFYYKTMGWYRQAPGKERELVAAITRNGGSTYYADSVKGRFTISRDKAKNTVYLQMKSLKLEDTAVYSCGAEGPSHRLNVRQVKGSDSWGQGTQVSVSS,low polyreactivity
4,QVQLVESGGGLVQAGGSLRLSCAASGGIFLKYAMAWYRQAPGKERELVASINTGVRTYYADSVKGRFTISRDNAKNTVYLQMNSLKPEDTAVYYCYADGGGPRKYTRTRGHWGQGTQVTVSS,low polyreactivity
5,QVQLVESGGGLVQAGGSLSLTCAASGITFYLYAMGWDIQAPGKERELVAAISSGSRTTYADSVKGRFTISRDNEKNTVYLQMNSLKPEDTAFYYCAAAYWNWGYYYSYDYWGQGTQVTVSS,high polyreactivity
6,QDQLVESGGGLVQAGGSLRLSCAASGITFAYYAMGWYTQAPGKERELVAGISKSGGRTYYADSVKGRFTISRDHAKNTVYLQMNSLKPEDTAVYYCAAQDARRIVYYRYYYWGQGTQVTVSS,high polyreactivity
7,QVQLVESGGGLVQAAGSLRLICAASGSIFTRYTMGWYRQAPGKERELVAVISDSSGRTYYADSVKGRFTISRDNAKNTVYLQMNSLKPEDTAVYYCAAEYSDIYEYWGQGTQVTVSS,low polyreactivity
8,QVQLVESGGGLVQAGGSLRLSCAASGRIFGTYAMGWYRQAPGKERELVAAISSSGTSTYYADSVKGRFTISRDNAKNTVYLQMNSLKPEDTAVYYCAADTVSFSILYDYWGQGTQVTVSS,low polyreactivity
9,QVQLVESGGGLVQAGGSLRLSCAASGFNFTAYAMGWYRQAPGKERELVAAISSGGSTNYADSVKGRFTISRDNAKNSVYLQMNSLKPEDTAVYYCAALLRGIEYDYWGQGTQVTVSS,high polyreactivity
10,QVQLVESGGGLVQAGGSLRLSCAASGFIFYRYAMGWYRPAPGKERELVAAISRSGGTTYYADSVKGRFTISRDNAKNTVYLQMNSLKPEETAVYYCAAVGTVSRTVGYKYWGQGTQVTVSS,high polyreactivity
11,QVQLVESGGGLVQAGGSLRLSCAASGFTIGYYVMGWYRQAPGKDRELVAAITRSGSRTYYADSVKGRFTISRDNAKNTVYLQMNSLKPEETAVYYCAADYKTFLRSFDYWGQGTQVTVSS,high polyreactivity
12,QVQLEESGGGLVQAGGSLRLSCAASGRTFVYYAMGWYRTATGKQRELVAAITSSGSRTYYADSVKGRFTFSRDNAKNTVYLQMNSLKPEDTAVYYCAADYVAHGDYRVLYDYWGQGTQVTVSS,low polyreactivity
13,QVQLVESGGGLVQAGGSLRLSCAASGFTFANNAMGWYRQAPGKERELVAAISWNGGSTFYADSVKGRFTISRDNAKNTVYLQMNSLKPEDTAVYYCNTVASYYRWKSYYYWGQGTQVTVSS,high polyreactivity
14,QVQLVESGGGLVQAGGSLRLFCAASGRIFSAYAMGLYRQAPGKERELVAGISSRGGSTYYADSVKGRFTISRDNAKNTVYLQMNSLKPEDTAVYYCAKPYGRRYGRLHDYWGQGTQVTVSS,high polyreactivity
15,QVQLVESGGGLVHAGGSLRLSFAASGRTFQVYAMGWSRQAPGKERELVAAITSLGGTYYADSVKGRFTISRYNAKNTVYLQMNSLKPEDTAVYYCAARARSTPRKYYYTRGYWGQGTQVTVSS,high polyreactivity
16,QVQLVESGGGLVQAGGSLRLSCAASGLTFKDNAMGWYRQAPGKERELVAAISKGGGSTFYADSVKGRFTISRDNAKNTVYLQMNSLKPEDTAVYYCNADVGYRGGEEDYWGQGTQVTVSS,low polyreactivity
17,KGHLEESGGGLVQAGGRLRLSCPASGNTFGDYAMGRYRQAPGKERELVAAISRSGGSTSYADSVKGRFTISRDNAKNTFYLQMNSLKPVDTAVYYCAAYWQRFGYDYWGQGTQVTVSS,low polyreactivity
18,QVQLVESGGGLVQAGGSLRLSCAASGLINYYYAMGWYRQAPGKERELVAAISGSSGASTYYADSVKGRFTISRDNAKNTVYLQMNSLKPEDTAVYYCATPVASVTGYDYWGQGTQVTVSS,low polyreactivity
19,QVQLVESGGCLVQARGSLRLRCAASGGTFYAYAMGWYREAPGKERELVAAISRSGSTYYADSVKGRFTISRDNAKNTVYLQMNSLKPEDTAVYYCAARRARRDPVGYVYAKYVYWGQGTQVTVSS,high polyreactivity
20,QVQLVESGAGLVQAGGSLRLSCAASGIFVRYGMGWYRQAPGKERELVAAISYGGGSTYYADSVKGRFTISRDNAKITVYLQMNSLKPEDTAVYYCAASYANRYKYDEYDYWGQGTQVTVSS,high polyreactivity
21,QVQLVESGGGLVQAGGSLRLSCAASGRIFWANAMGWYRQAPGKERELVAAISNSGVSTYYADSVKGRFTISRDNAKHTVYLQMNSLKPEDTAVYYCAADRYRKYYYWGQGTLVTVSS,high polyreactivity
22,QVQLVESGGGLVHAGGSLRLSCAASGITYSRYAMGWYRQAPGKERELVAAITWDGGRTYYADTVKGRFTISRDIAKNTVYLQMNSVKPEDTAVYYCAAGSAWWYYWGQGTQVTVSS,high polyreactivity

row,Sequence,polyreactivity (PSR sort gate)
1,QVQLVESGGGLVQAGGSLRLSCAASGRIFPRNTMGRYRQAPGKERELVAGITSGGGTYYADSVKGRFTISRDNAKNTVYFQMNRLKPEDTAVFYCAARPWRSRYYGGLGRRFDYWGQGTQVTVSS,high polyreactivity
2,QVQLVESGGGLVQAGGSLRLSCAASGRTFVSYVMGWYRQAPGKERELVAAIRRRGGRTYYADSVKGRFTISRDNAKNTVYLQMNSLKPEDTAVYYCAAAQPGTNAYRVGSWGQGTQVTVSS,high polyreactivity
3,QVQLVESGGGLVQAGGSLRLICAASGRTFGRNAMGWYRQAPGKERELVAAISYGGGSTYYADSVKGRFTISRDNAKNTVYLQMNSLKPEDTPGSAAAARYAYGMWGQGTQVTVSS,low polyreactivity
4,QDQLVESGGGLVQAGGSLRLSCAASGFTFWEYAMGWYRHAPGKERELVAAISRGTSTYYADSVKGRFTISRDNAKNTVYLQMNSLKPEDTAVYYCASAPSYYPARHGYWGQGTQVTVSS,low polyreactivity
5,QVQLVESWGGLVQAGGTLRLSCAASGRILYLNAMGWNRQAPGKEREFVAAISKSGGSTYYADSVKGRFTISRDNAMNSVYLQMNSLKPEDTAVYYCATRYRSAEYDFWGQGTQVTVSS,low polyreactivity
6,QVQLVESGGGLVQAGGSLRLSCAASGRTFSYNAMGWYRQAPGKERELVAAITWRGSTTYYADSVKGRFTISRDNAKNTVYLQMNSLKPEDTAVYYCAADTGQPYILDYWGQGTQVTVSS,low polyreactivity
7,QVQLVESGGGLVQAGGSLRLSCAASGYTINPYAIGWYRQAPGKERELVATIRSSGSTNYADSVKGRFTISRDNAKYTVYLQRNSLKPEDTAVYYFAARTSGRTVRYYYWGQGTQVTVSS,high polyreactivity
8,QVQLVESGGGLVQAGGSLRLSCAASGFIFRWYAMGWSRQAPGKERELVAAISRGGSTNYADSVKGRFTISRDNAKNTVYLQMISLKPEDTAVYYCNARYVSYSGRYVIGQYVKYDYWGQGTQVTVSS,high polyreactivity
9,QVQLVESGGGLVQAGGSLRLSCAASGRTFVRYALGWYRQAPGKERELVAAISWNDNSTYYADSVKGRFTISRDNAKNTVYLQMNSLKPEDTAVYYCATRVLTQQPGYQAYIFPEFDYWGQGTQVTVSS,low polyreactivity
10,QVQLVESGGGIVQAGGSLRLSCAASGSIFSTNAMGWYRQAPWKERELVAAIDITNYADSVKGRFTISRDNAKNTVYLQMNSLKPEDTAVYYCNADTYSVVREGDYWGQGTQVTVSS,low polyreactivity
11,QVQLVESGGGLVQAGGSLRLSCAASGIIFANNAMGWYRQAPGKERELVARISRSGGGTYYADSVKGRFTISRDNAKNTVYLQMNSLKPEDTAVYYCNAESSYYYGTAAYEYWGQGTQVTVSS,low polyreactivity
12,QVQLVESGGGLVQAGGSLRLSCAASGLIIRRYAMGWYRQAPGKERELVAAISGSGSSTYYADSVKGRFTISRDNAKNTVYLQMNSLKPEDTAVYDCAAVVLFRRGQVIRVESDYWGQGTQVTVSS,high polyreactivity
13,QVQLVESGGGLVQAGGSLRLICAAYGRIFQGYAMGWYRQAPGKERELVAAITLSGGSTYYADSVKGRFTISRDNAKNTVYLQMNSLKPEDTAVSYCNAYYPDEPSLYDYWGQGTQVTVSS,low polyreactivity
14,QVQLVESGGGLVQAGGSLRLSCAASGSIFESYARGWYRHSPGKERELVADITYHGGITYYADSVKGRFTISRDNAKNNFYLQMNSLKPEDTSVYYCAAESEKWYNYVLSYDWEYDYWGQGTQVTVSS,low polyreactivity
15,QVQLVESCGGLVQAGGSLRLSCAASGFTFWRYAMGWYRQAPGKERELVAAISRTGGRTYYADSVKGRFTISRDNAKNTVYLQMNSLKPEDTAVYYCAAVKYETYRYNYDYWGQGTQVTVSS,high polyreactivity
16,QVQRVESGGGLVQAGGSLRLSSADSGLTLYRYAMGWYRQAPGKERELVAAISSGDRTNYADSVKGRFTISRDNAKNTVYLHMNSLKPEDTAVYYCAALRQARQKKYGYWGQGTQVTVSS,high polyreactivity
17,QVQLGESGGGLVQAGGSLRLSCAASGFPFQGNAMGWSRQAPGKERELLAAISYDGGSSYYADSVKGRFTISRDNAKNTVYLQMNSLKPEDTAVYYCAAYVVTWYYYWGQGTQVTLSS,high polyreactivity
18,QVQLVESGGGLVQAGGSLRLSCAASGSIFIFYAMGWYRQAPGNERELVADITSDGASTYYADSVKGRFTISRDNAKNTVYLQMNSLKPEDTAVYYCAADYIDSSAYDYWGQGTQVTVSS,low polyreactivity
19,QVQLVESGGGLVQAGRSLRLSCASSGSTFRVYDMGWYRQAPGNERELVASISYSVGSTYYADSVKGRFTISRDNAKNTVYLQMITLKPEDTEVYFCAARPSYQPSSLARYDYWGQGTQVSVSS,low polyreactivity
20,QVQLVESGGCLVQAGGSLRLSCAASGSTFYDYDMGWYRQAPGKERELVAAISSSVSTYYADSVKGRFTISRDNAKNTVYFQMNSLKPEDTAVYYCAADYTGVWRYDYWGQGTQVTVSS,low polyreactivity
21,QVQLVESGGGLVQAGGSLRLSCAASGSTLWYNAMGWYRQAPGKERELVATITAGGGSTYYADSVKGRFTISRDNAKNTVYLQMNSLKPEDTAVYYCATPVASVTGYDYWGQGTQVTVSS,low polyreactivity
